Laboratory results published in the supplement of paper PMC7877785.
± gives the uncertainty stated by the source.

Experiment: self-splicing fitness, log relative to wild type (ln ratio); higher = more splicing; Tetrahymena group I intron in knt gene, E. coli kanamycin selection, DiMSum; sequences stand for … in CUCUCU…GGAGGGAAAAGUUAUCAGGCAUGCACCUGGUAGCUAGUCUUUAAACCAAUAGAUUGCAUCGGUUUAAAAGGCAAGACCGUCAAAUUGCGGGAAAGGGGUCAACAGCCGUUCAGUACCAAGUCUCAGGGGAAACUUUGAGAUGGCCUUGCAAAGGGUAUGGUAAUAAGCUGACGGACAUGGUCCUAACCACGCAGCCAAGUCCUAAGUCAACAGAUCUUCUGUUGAUAUGGAUGCAGUUCACAGACUAAAUGUCGGUCGGGGAAGAUGUAUUCUUCUCAUAAGAUAUAGUCGGACCUCUCCUUAAUGGGAGCUAGCGGAUGAAGUGAUGCAACACUGGAGCCGCUGGGAACUAAUUUGUAUGCGAAAGUAUAUUGAUUAGUUUUGGAGUACUCGUGGUCG
Summary of the method: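 Library with all eight P1ex-region intron nucleotides randomised, intron inside the knt kanamycin-resistance gene on pET-22b(+), in E. coli BL21(DE3). Cells grew overnight at 37°C or 30°C on LB agar with or without 25 μg/mL kanamycin (plus 100 μg/mL carbenicillin, 50 μM IPTG, 0.2% rhamnose), in six replicate transformations. Pooled colonies were amplicon-sequenced on Illumina HiSeq 2500. DiMSum fitness is the error-weighted combination of wild-type-normalised replicate fold changes, kanamycin versus none.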

In the case of CUAUAGCAAUAUUACGACUG, the “self-splicing fitness (ln)” value (30 °C) is reported as 0.0686 ± 0.17 and the “self-splicing fitness (ln)” value (37 °C) is reported as -0.119 ± 0.17.
With CUGCAGCAAUAUUACGGUGU the “self-splicing fitness (ln)” value (30 °C) was -4.57 ± 0.36 and the “self-splicing fitness (ln)” value (37 °C) was -2.37 ± 0.24.
For GAACAGCAAUAUUACGCAAC, the “self-splicing fitness (ln)” value (30 °C) was -1.58 ± 0.097 and the “self-splicing fitness (ln)” value (37 °C) was -0.355 ± 0.13.
In the case of CUUGAGCAAUAUUACGAGUC, the “self-splicing fitness (ln)” value (30 °C) is reported as -4.15 ± 0.39 and the “self-splicing fitness (ln)” value (37 °C) is reported as -1.33 ± 0.17.
With UCCAAGCAAUAUUACGGUCU the “self-splicing fitness (ln)” value (30 °C) was -2.33 ± 0.1 and the “self-splicing fitness (ln)” value (37 °C) was -0.343 ± 0.097.
In the case of UGUCAGCAAUAUUACGUAUA, the “self-splicing fitness (ln)” value (30 °C) is reported as -0.245 ± 0.067 and the “self-splicing fitness (ln)” value (37 °C) is reported as 0.374 ± 0.087.
In the case of ACGCAGCAAUAUUACGCAAU, the “self-splicing fitness (ln)” value (30 °C) is reported as -1.76 ± 0.11 and the “self-splicing fitness (ln)” value (37 °C) is reported as -1.85 ± 0.15.
In the case of UCUGAGCAAUAUUACGUUUA, the “self-splicing fitness (ln)” value (30 °C) is reported as -2.83 ± 0.17 and the “self-splicing fitness (ln)” value (37 °C) is reported as -2.65 ± 0.19.
With CAGCAGCAAUAUUACGCUCG the “self-splicing fitness (ln)” value (30 °C) was -1.95 ± 0.16 and the “self-splicing fitness (ln)” value (37 °C) was -0.385 ± 0.21.
In the case of CUUGAGCAAUAUUACGCACU, the “self-splicing fitness (ln)” value (30 °C) is reported as -3.64 ± 0.39 and the “self-splicing fitness (ln)” value (37 °C) is reported as -1.9 ± 0.44.
With CGCUAGCAAUAUUACGGCGA the “self-splicing fitness (ln)” value (30 °C) was -2.76 ± 0.28 and the “self-splicing fitness (ln)” value (37 °C) was -2.3 ± 0.24.
In the case of AGCCAGCAAUAUUACGAGUG, the “self-splicing fitness (ln)” value (30 °C) is reported as -3.63 ± 0.2 and the “self-splicing fitness (ln)” value (37 °C) is reported as -2.13 ± 0.14.
For UGUCAGCAAUAUUACGUGAU, the “self-splicing fitness (ln)” value (30 °C) was -2.85 ± 0.13 and the “self-splicing fitness (ln)” value (37 °C) was -1.81 ± 0.14.
In the case of UUGAAGCAAUAUUACGGAAC, the “self-splicing fitness (ln)” value (30 °C) is reported as -3.62 ± 0.32 and the “self-splicing fitness (ln)” value (37 °C) is reported as -2.08 ± 0.3.
For GGUGAGCAAUAUUACGCGUA, the “self-splicing fitness (ln)” value (30 °C) was -1.95 ± 0.3 and the “self-splicing fitness (ln)” value (37 °C) was -0.54 ± 0.21.
In the case of AUUAAGCAAUAUUACGUAGC, the “self-splicing fitness (ln)” value (30 °C) is reported as -4.67 ± 0.45 and the “self-splicing fitness (ln)” value (37 °C) is reported as -1.84 ± 0.22.
For GUCCAGCAAUAUUACGGCGC, the “self-splicing fitness (ln)” value (30 °C) was -0.166 ± 0.15 and the “self-splicing fitness (ln)” value (37 °C) was 0.208 ± 0.22.
With CGGGAGCAAUAUUACGUACA the “self-splicing fitness (ln)” value (30 °C) was -3.72 ± 0.35.
With UACAAGCAAUAUUACGUCCU the “self-splicing fitness (ln)” value (30 °C) was -1.16 ± 0.1 and the “self-splicing fitness (ln)” value (37 °C) was 0.292 ± 0.15.
For GUUCAGCAAUAUUACGCGGG, the “self-splicing fitness (ln)” value (30 °C) was -2.32 ± 0.14 and the “self-splicing fitness (ln)” value (37 °C) was -0.613 ± 0.1.
In the case of ACAAAGCAAUAUUACGCUAC, the “self-splicing fitness (ln)” value (30 °C) is reported as -3.07 ± 0.28 and the “self-splicing fitness (ln)” value (37 °C) is reported as -2.43 ± 0.33.
In the case of CCGCAGCAAUAUUACGAGUG, the “self-splicing fitness (ln)” value (30 °C) is reported as -0.193 ± 0.052 and the “self-splicing fitness (ln)” value (37 °C) is reported as -0.212 ± 0.069.
In the case of UUGUAGCAAUAUUACGUAGG, the “self-splicing fitness (ln)” value (30 °C) is reported as -2.12 ± 0.15 and the “self-splicing fitness (ln)” value (37 °C) is reported as -1.04 ± 0.23.
For UUGUAGCAAUAUUACGUGAC, the “self-splicing fitness (ln)” value (30 °C) was -2.34 ± 0.26 and the “self-splicing fitness (ln)” value (37 °C) was -1.86 ± 0.33.
In the case of GACAAGCAAUAUUACGACGG, the “self-splicing fitness (ln)” value (30 °C) is reported as -3.3 ± 0.2 and the “self-splicing fitness (ln)” value (37 °C) is reported as -2.64 ± 0.17.
With UUUGAGCAAUAUUACGGAUA the “self-splicing fitness (ln)” value (30 °C) was -3.12 ± 0.43 and the “self-splicing fitness (ln)” value (37 °C) was -2.36 ± 0.45.
With GGUGAGCAAUAUUACGUUCC the “self-splicing fitness (ln)” value (30 °C) was -1.39 ± 0.18 and the “self-splicing fitness (ln)” value (37 °C) was -0.666 ± 0.24.
In the case of CCCGAGCAAUAUUACGUGGU, the “self-splicing fitness (ln)” value (30 °C) is reported as -4.96 ± 0.34 and the “self-splicing fitness (ln)” value (37 °C) is reported as -2.59 ± 0.19.
In the case of UUGUAGCAAUAUUACGGCUC, the “self-splicing fitness (ln)” value (30 °C) is reported as -1.79 ± 0.31 and the “self-splicing fitness (ln)” value (37 °C) is reported as 0.26 ± 0.24.
In the case of AGGCAGCAAUAUUACGGUAC, the “self-splicing fitness (ln)” value (30 °C) is reported as -3.68 ± 0.21 and the “self-splicing fitness (ln)” value (37 °C) is reported as -2.65 ± 0.2.
For UUACAGCAAUAUUACGUAAC, the “self-splicing fitness (ln)” value (30 °C) was -3.72 ± 0.18 and the “self-splicing fitness (ln)” value (37 °C) was -3.25 ± 0.24.
For CGAUAGCAAUAUUACGUUUA, the “self-splicing fitness (ln)” value (37 °C) was -2.57 ± 0.21.
In the case of GCUGAGCAAUAUUACGGUAG, the “self-splicing fitness (ln)” value (30 °C) is reported as -3.27 ± 0.24 and the “self-splicing fitness (ln)” value (37 °C) is reported as -3.11 ± 0.3.
With GACCAGCAAUAUUACGGCGC the “self-splicing fitness (ln)” value (30 °C) was -0.331 ± 0.09 and the “self-splicing fitness (ln)” value (37 °C) was 0.162 ± 0.1.
For CCUCAGCAAUAUUACGUGUA, the “self-splicing fitness (ln)” value (30 °C) was -2.19 ± 0.13 and the “self-splicing fitness (ln)” value (37 °C) was -2.16 ± 0.15.
For UGGAAGCAAUAUUACGGUUA, the “self-splicing fitness (ln)” value (30 °C) was -1.04 ± 0.11 and the “self-splicing fitness (ln)” value (37 °C) was -0.0733 ± 0.099.
In the case of UUAAAGCAAUAUUACGUAAA, the “self-splicing fitness (ln)” value (30 °C) is reported as -1.16 ± 0.12 and the “self-splicing fitness (ln)” value (37 °C) is reported as -0.0909 ± 0.12.
In the case of ACUUAGCAAUAUUACGGACU, the “self-splicing fitness (ln)” value (30 °C) is reported as -0.341 ± 0.096 and the “self-splicing fitness (ln)” value (37 °C) is reported as 0.14 ± 0.16.
With GUGAAGCAAUAUUACGAGGU the “self-splicing fitness (ln)” value (30 °C) was -1.83 ± 0.29 and the “self-splicing fitness (ln)” value (37 °C) was -1.36 ± 0.26.
With AUUGAGCAAUAUUACGGGAU the “self-splicing fitness (ln)” value (30 °C) was -3.29 ± 0.23 and the “self-splicing fitness (ln)” value (37 °C) was -1.96 ± 0.15.
For CCAGAGCAAUAUUACGGAGA, the “self-splicing fitness (ln)” value (30 °C) was -2.38 ± 0.26.
With AGGGAGCAAUAUUACGUCAU the “self-splicing fitness (ln)” value (30 °C) was -3.06 ± 0.28 and the “self-splicing fitness (ln)” value (37 °C) was -2.74 ± 0.31.
For CAAUAGCAAUAUUACGCCUG, the “self-splicing fitness (ln)” value (30 °C) was -0.752 ± 0.075 and the “self-splicing fitness (ln)” value (37 °C) was 0.366 ± 0.088.
In the case of UGCGAGCAAUAUUACGUUUC, the “self-splicing fitness (ln)” value (37 °C) is reported as -2.62 ± 0.36.
In the case of AAUCAGCAAUAUUACGGAUG, the “self-splicing fitness (ln)” value (30 °C) is reported as -0.144 ± 0.066 and the “self-splicing fitness (ln)” value (37 °C) is reported as 0.153 ± 0.085.
For ACCGAGCAAUAUUACGGGCG, the “self-splicing fitness (ln)” value (30 °C) was -1.64 ± 0.083 and the “self-splicing fitness (ln)” value (37 °C) was -0.0363 ± 0.088.
In the case of UUUGAGCAAUAUUACGAGAG, the “self-splicing fitness (ln)” value (30 °C) is reported as -2.2 ± 0.32.
With GUUAAGCAAUAUUACGUUAA the “self-splicing fitness (ln)” value (30 °C) was -2.24 ± 0.17 and the “self-splicing fitness (ln)” value (37 °C) was -1.79 ± 0.17.
For ACACAGCAAUAUUACGAAUC, the “self-splicing fitness (ln)” value (30 °C) was -3.22 ± 0.15 and the “self-splicing fitness (ln)” value (37 °C) was -2.63 ± 0.21.
